Results: article PMC11235169 (2024)
Values belong to the binder of their own block, whether it stands above or below them.

Key:
[1] = biological target: T1, recombinant sushi domain protein; experiment: FP
T1 chain: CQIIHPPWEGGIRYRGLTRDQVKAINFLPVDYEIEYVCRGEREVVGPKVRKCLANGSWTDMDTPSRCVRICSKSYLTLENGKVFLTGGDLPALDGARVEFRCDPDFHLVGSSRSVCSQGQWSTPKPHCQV

[2] = biological target: recombinant sushi domain protein; experiment: fluorescence polarisation; competition: preformed complex of sushi domain protein (40 nM) and TMR-hAJAP17 (25 nM) outcompeted with unlabeled peptides (0.006 to 6.25 μM or 0.03 to 62.5 μM); 20 mM NaPi pH 6.8, 50 mM NaCl, 0.5 mM EDTA, 1% BSA, 25°C; Ki calculated from sigmoidal dose-response fits
[3] = biological target: recombinant sushi domain protein; experiment: ITC; 100 μM hAJAP17 or 300 μM W183C peptide injected into 10 or 30 μM sushi domain protein in the cell; 25°C; 20 mM NaPi pH 7.4; one-site binding model
TMR-hAJAP17 (human) = biological target: T2, TMR-hAJAP17 (human); experiment: fluorescence polarisation; saturation binding: sushi domain protein (0.73 to 1500 nM) added to TMR-hAJAP17 (25 nM); 20 mM NaPi pH 6.8, 50 mM NaCl, 0.5 mM EDTA, 1% BSA, 25°C; one-site binding model
T2 chain: ETEFIAWGPTGDEEALE

[4] = biological target: T1, recombinant sushi domain protein; experiment: ITC

Binder: ETEFIAWGPTGDEEALE [hAJAP17]
- Ki [2]: 0.06 µM
- Kd [3]: 0.047 µM
- stoichiometry N [3]: 1

Binder: ETEFIACGPTGDEEALE [hAJAP17-W183C]
- Kd [4]: 46.7 µM
- Ki [1]: 49.3 µM

More lines, now with the values ahead:

- Ki [1]: 44.8 µM
B1: mAJAP17-W183C (peptide)
chain: ETEFIACGPTGDEDALE
modifications: Limits taken by alignment with the printed human 17-mer … (177-193, W183 at position 7; W183 has the same number in mouse). C-terminal amide is likely, as printed for the TMR-hAJAP17 peptide, but is not stated for this one

- Kd (TMR-hAJAP17 (human)): 0.0204 µM
B2: recombinant sushi domain protein (domain or fragment)
chain: T1 chain
modifications: not checked
